Test results as given in patent publication US20200371101A1.
Read-outs that look alike come from different tables or passages of the source. Values belong to the binder of their own block, whether it stands above or below them. Bridge positions count the residues as written; N and C are the ends. Square brackets hold non-standard residues; d marks the D form. Ends that are not written are not given here. Az4 = not defined here

Tests used:
[1] = biological target: His-tagged IDO1 human recombinant protein (71182, BPS Biosciences) (human) (UniProt P14902); test: ELISA: biotin-PEG3 macrocycle on NeutrAvidin plate, His-tagged human IDO1 titrated, AP-conjugated anti-6XHis antibody, fluorescence
His-tagged IDO1 human recombinant protein (71182, BPS Biosciences) (human), sequence (P14902 2-403 limits assumed): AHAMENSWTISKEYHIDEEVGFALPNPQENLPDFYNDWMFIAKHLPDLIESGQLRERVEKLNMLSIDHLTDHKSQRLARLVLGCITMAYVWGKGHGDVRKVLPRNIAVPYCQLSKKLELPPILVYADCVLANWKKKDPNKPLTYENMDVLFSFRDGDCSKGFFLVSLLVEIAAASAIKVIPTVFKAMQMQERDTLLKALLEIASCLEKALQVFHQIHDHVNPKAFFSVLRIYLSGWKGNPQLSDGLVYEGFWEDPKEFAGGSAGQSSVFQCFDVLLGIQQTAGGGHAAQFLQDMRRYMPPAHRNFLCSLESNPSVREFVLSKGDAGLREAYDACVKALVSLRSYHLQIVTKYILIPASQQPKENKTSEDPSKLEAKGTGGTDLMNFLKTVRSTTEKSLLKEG

[2] = biological target: His-tagged IDO1 human recombinant protein (71182, BPS Biosciences) (human) (UniProt P14902); test: binding analysis, method not named
[3] = biological target: His-tagged IDO1 human recombinant protein (71182, BPS Biosciences) (human) (UniProt P14902); test: ELISA
[4] = biological target: His-tagged IDO1 human recombinant protein (71182, BPS Biosciences) (human) (UniProt P14902); test: sandwich ELISA: biotinylated macrocycle on NeutrAvidin plate, His-tagged IDO1 titrated, anti-6XHis-AP detection
[5] = biological target: His-tagged IDO1 human recombinant protein (71182, BPS Biosciences) (human) (UniProt P14902); test: ELISA binding assay; small molecule masked as its oxadiazolone (protected)
[6] = biological target: His-tagged IDO1 human recombinant protein (71182, BPS Biosciences) (human) (UniProt P14902); test: cell-based or functional assay
[7] = biological target: His-tagged IDO1 human recombinant protein (71182, BPS Biosciences) (human) (UniProt P14902); test: ELISA binding assay
[8] = biological target: His-tagged IDO1 human recombinant protein (71182, BPS Biosciences) (human) (UniProt P14902); test: binding affinity, assay not named
[9] = biological target: His-tagged IDO1 human recombinant protein (71182, BPS Biosciences) (human) (UniProt P14902); test: ELISA binding assay; deprotected small molecule (hydroxyamidine free)
[10] = biological target: His-tagged IDO1 human recombinant protein (71182, BPS Biosciences) (human) (UniProt P14902); test: cell-based or functional assay; remark: listed apart in the source

B4: Protected-Inh-PEG8-wyvay (peptide)
peptide: [dW][dY][dV][dA][dY]-Az4
modifications: triazole N-C; not fully specified (N-terminus); printed as Protected-Inh-PEG8-wyvay; reading uncertain; also: Inh hydroxyamidine masked as oxadiazolone
EC50 [5]: 92 nM | IC50, IDO1 inhibition assay [6]: > 10000 nM | fold decrease in binding affinity (EC50) against the deprotected heterobiligand [7]: 3 fold

B5: Biotin-PEG3-Cy(waray) (peptide)
peptide: WARAY
modifications: all D-amino acids; ring closed by triazole between flanking N-terminal Pra and C-terminal Az4; N-terminal biotin-PEG3
EC50 [1]: 98 nM

B8: Biotin-PEG3-Cy(wyaay) (peptide)
peptide: WYAAY
modifications: all D-amino acids; ring closed by triazole between flanking N-terminal Pra and C-terminal Az4; N-terminal biotin-PEG3
EC50 [1]: 65 nM

B11: biotin-PEG3-Cy(wyray) (peptide)
peptide: WYRAY
modifications: all D-amino acids; ring closed by triazole between flanking N-terminal Pra and C-terminal Az4; N-terminal biotin-PEG3
EC50 [1]: 25 nM | EC50 [4]: 25 nM | EC50 [3]: 25 nM

Other lines, results leading:

EC50 [1]: 79 nM
B1: Biotin-PEG3-Cy(wray) (peptide)
peptide: WRAY
modifications: all D-amino acids; ring closed by triazole between flanking N-terminal Pra and C-terminal Az4; N-terminal biotin-PEG3

EC50 [2]: 45 nM | EC50 [3]: 45 nM
B2: wyvay macrocycle (peptide)
peptide: [dW][dY][dV][dA][dY]
modifications: triazole (positions not given here); also: ring closed by flanking Pra and Az4, not in chain

EC50 [4]: 125 nM
B3: biotin-PEG3-Cy(rffyl) (peptide)
peptide: RFFYL
modifications: all D-amino acids; ring closed by triazole between flanking N-terminal Pra and C-terminal Az4; N-terminal biotin-PEG3

EC50 [8]: 36 nM | IC50, IDO1 inhibition assay [6]: 407 nM | EC50 [9]: 34 nM | IC50, IDO1 inhibition assay [10]: 350 nM | Inhibition Recombinant IDO1 IC50 [10]: 407 nM
B6: Deprotected-Inh-PEG8-wyvay (peptide)
peptide: [dW][dY][dV][dA][dY]-Az4
modifications: triazole N-C; not fully specified (N-terminus); reading uncertain; also: small molecule Inh joined via PEG8 linker, attachment point not given here

EC50 [1]: 103 nM
B7: Biotin-PEG3-Cy(ayray) (peptide)
peptide: AYRAY
modifications: all D-amino acids; ring closed by triazole between flanking N-terminal Pra and C-terminal Az4; N-terminal biotin-PEG3

EC50 [1]: 113 nM
B9: Biotin-PEG3-Cy(yray) (peptide)
peptide: YRAY
modifications: all D-amino acids; ring closed by triazole between flanking N-terminal Pra and C-terminal Az4; N-terminal biotin-PEG3

EC50 [1]: 18 nM
B10: Biotin-PEG3-Cy(wyry) (peptide)
peptide: WYRY
modifications: all D-amino acids; ring closed by triazole between flanking N-terminal Pra and C-terminal Az4; N-terminal biotin-PEG3
